T1: amphyphisin SH3 (AMPH_HUMAN), P49418
T1 chain: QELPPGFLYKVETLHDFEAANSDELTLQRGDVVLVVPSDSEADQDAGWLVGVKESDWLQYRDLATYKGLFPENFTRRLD

The target in the first experiment is endophilin SH3 (SH3G2_HUMAN), Q99962. In words: SPOT array.
Molecule KPQTIKRPLNPLAS [Q9UKV6 127-140] had a normalised SPOT signal, Boehringer light units (BLU); mean over the file's lines of this peptide of 52.2.

For KNRTFLRPPKVKME [O75937 248-261], the normalised SPOT signal, Boehringer light units (BLU); mean over the file's lines of this peptide stood at 55.9.

KPQPPARPPPPVLP [Q9UKL5 750-764] had a normalised SPOT signal, Boehringer light units (BLU); mean over the file's lines of this peptide of 10900.

As to KNLDISRPDKKSKK [P46977 431-444], the normalised SPOT signal, Boehringer light units (BLU); mean over the file's lines of this peptide amounted to 342.

Regarding KPASPKKPPPGERS [O60382 1692-1706], the normalised SPOT signal, Boehringer light units (BLU); mean over the file's lines of this peptide was found to be 737.

Regarding KPPKPPKPPRPPKT [Q9Y6N4 506-520], the normalised SPOT signal, Boehringer light units (BLU); mean over the file's lines of this peptide amounted to 16900.

KKPVPARPPPPTNF [AAH28697 228-242] came in with a normalised SPOT signal, Boehringer light units (BLU); mean over the file's lines of this peptide of 11900.

In turn, KPQRPRRPASPIST [P07360 22-35] came in with a normalised SPOT signal, Boehringer light units (BLU); mean over the file's lines of this peptide of 9220.

KLDTPLRPARQQPT [Q14775 472-485] returned a normalised SPOT signal, Boehringer light units (BLU); mean over the file's lines of this peptide of 1390.

Regarding KPVSPRRPWSPSKE [Q9HCL7 1184-1197], the normalised SPOT signal, Boehringer light units (BLU); mean over the file's lines of this peptide was 1760.

The molecule KPPALPRPIRNLEV [P47895 16-29] returned a normalised SPOT signal, Boehringer light units (BLU); mean over the file's lines of this peptide of 958.

Molecule KLMKFSRPKKTRSG [Q9UIG2 1550-1563] had a normalised SPOT signal, Boehringer light units (BLU); mean over the file's lines of this peptide of 1.7.

As to KLFRPRRPRSSSDA [O94820 221-234], the normalised SPOT signal, Boehringer light units (BLU); mean over the file's lines of this peptide is 316.

KPSRPPRPSRPPPP [O43584 85-98] registered a normalised SPOT signal, Boehringer light units (BLU); mean over the file's lines of this peptide of 46000.

As for KLKSPKRPASPSSP [Q9H8D2 66-79], the normalised SPOT signal, Boehringer light units (BLU); mean over the file's lines of this peptide turned out to be 803.

As to ANKILNRPKRYNSG [P00740 37-50], the normalised SPOT signal, Boehringer light units (BLU); mean over the file's lines of this peptide worked out at 198.

KPGSPYRPPVPRAP [Q14687 646-660]: the normalised SPOT signal, Boehringer light units (BLU); mean over the file's lines of this peptide turned out to be 1840.

KLMEPHRPERQDEK [P49593 287-300] yielded a normalised SPOT signal, Boehringer light units (BLU); mean over the file's lines of this peptide of 146.

KPPKPPRPPKTLKL [Q9Y6N4 509-523] came in with a normalised SPOT signal, Boehringer light units (BLU); mean over the file's lines of this peptide of 25300.

For KPRQIKRPLEDAIE [Q9UNI5 8-21], the normalised SPOT signal, Boehringer light units (BLU); mean over the file's lines of this peptide worked out at 30.7.

For ANLALRRPQGSTSR [P06681 588-601], the normalised SPOT signal, Boehringer light units (BLU); mean over the file's lines of this peptide was found to be 322.

The molecule KKYLPKRPAKDDPE [Q15642 51-64] yielded a normalised SPOT signal, Boehringer light units (BLU); mean over the file's lines of this peptide of 195.

KPASPKKPPPGERR [Q9UQ36 1183-1197] yielded a normalised SPOT signal, Boehringer light units (BLU); mean over the file's lines of this peptide of 779.

As for ANLQPKRPKTIKQR [Q9NXX2 8-21], the normalised SPOT signal, Boehringer light units (BLU); mean over the file's lines of this peptide was 55.4.

KLGTLRRPEGPAEP [Q14289 12-25] displayed a normalised SPOT signal, Boehringer light units (BLU); mean over the file's lines of this peptide of 10.4.

KPEGLRRPPSKTSM [Q15047 1069-1082] gave a normalised SPOT signal, Boehringer light units (BLU); mean over the file's lines of this peptide of 41.2.

KKPPLRRPHSVIGG [Q00537 66-79] yielded a normalised SPOT signal, Boehringer light units (BLU); mean over the file's lines of this peptide of 81.

In turn, KLEDPRRPDTSFLW [O75923 2014-2027] yielded a normalised SPOT signal, Boehringer light units (BLU); mean over the file's lines of this peptide of 22.4.

Another experiment concerns the target T1, amphyphisin SH3 (AMPH_HUMAN), P49418. In words: SPOT array.
Consider KPQTIKRPLNPLAS [Q9UKV6 127-140], for which the normalised SPOT signal, Boehringer light units (BLU); mean over the file's lines of this peptide was 9.

Turning to KNRTFLRPPKVKME [O75937 248-261], the normalised SPOT signal, Boehringer light units (BLU); mean over the file's lines of this peptide amounted to 77.8.

Take KPQPPARPPPPVLP [Q9UKL5 750-764]: the normalised SPOT signal, Boehringer light units (BLU); mean over the file's lines of this peptide is 1520.

As for KNLDISRPDKKSKK [P46977 431-444], the normalised SPOT signal, Boehringer light units (BLU); mean over the file's lines of this peptide was determined as 327.

KPASPKKPPPGERS [O60382 1692-1706] returned a normalised SPOT signal, Boehringer light units (BLU); mean over the file's lines of this peptide of 56.

Consider KPPKPPKPPRPPKT [Q9Y6N4 506-520], for which the normalised SPOT signal, Boehringer light units (BLU); mean over the file's lines of this peptide stood at 3550.

KKPVPARPPPPTNF [AAH28697 228-242] gave a normalised SPOT signal, Boehringer light units (BLU); mean over the file's lines of this peptide of 150.

For the molecule KPQRPRRPASPIST [P07360 22-35], the normalised SPOT signal, Boehringer light units (BLU); mean over the file's lines of this peptide is 2580.

As for KLDTPLRPARQQPT [Q14775 472-485], the normalised SPOT signal, Boehringer light units (BLU); mean over the file's lines of this peptide amounted to 2170.

Turning to KPVSPRRPWSPSKE [Q9HCL7 1184-1197], the normalised SPOT signal, Boehringer light units (BLU); mean over the file's lines of this peptide was determined as 226.

In turn, KPPALPRPIRNLEV [P47895 16-29] displayed a normalised SPOT signal, Boehringer light units (BLU); mean over the file's lines of this peptide of 118.

The molecule KLMKFSRPKKTRSG [Q9UIG2 1550-1563] gave a normalised SPOT signal, Boehringer light units (BLU); mean over the file's lines of this peptide of 0.

On to KLFRPRRPRSSSDA [O94820 221-234], for which the normalised SPOT signal, Boehringer light units (BLU); mean over the file's lines of this peptide amounted to 46.6.

KPSRPPRPSRPPPP [O43584 85-98] had a normalised SPOT signal, Boehringer light units (BLU); mean over the file's lines of this peptide of 8020.

Molecule KLKSPKRPASPSSP [Q9H8D2 66-79] yielded a normalised SPOT signal, Boehringer light units (BLU); mean over the file's lines of this peptide of 32.4.

For ANKILNRPKRYNSG [P00740 37-50], the normalised SPOT signal, Boehringer light units (BLU); mean over the file's lines of this peptide turned out to be 476.

KPGSPYRPPVPRAP [Q14687 646-660] had a normalised SPOT signal, Boehringer light units (BLU); mean over the file's lines of this peptide of 201.

As to KLMEPHRPERQDEK [P49593 287-300], the normalised SPOT signal, Boehringer light units (BLU); mean over the file's lines of this peptide turned out to be 485.

KPPKPPRPPKTLKL [Q9Y6N4 509-523] gave a normalised SPOT signal, Boehringer light units (BLU); mean over the file's lines of this peptide of 1290.

Turning to KPRQIKRPLEDAIE [Q9UNI5 8-21], the normalised SPOT signal, Boehringer light units (BLU); mean over the file's lines of this peptide worked out at 57.1.

For the molecule ANLALRRPQGSTSR [P06681 588-601], the normalised SPOT signal, Boehringer light units (BLU); mean over the file's lines of this peptide stood at 12.6.

KKYLPKRPAKDDPE [Q15642 51-64] returned a normalised SPOT signal, Boehringer light units (BLU); mean over the file's lines of this peptide of 11.1.

Molecule KPASPKKPPPGERR [Q9UQ36 1183-1197] yielded a normalised SPOT signal, Boehringer light units (BLU); mean over the file's lines of this peptide of 43.2.

For the molecule ANLQPKRPKTIKQR [Q9NXX2 8-21], the normalised SPOT signal, Boehringer light units (BLU); mean over the file's lines of this peptide was found to be 23.6.

In the case of KLGTLRRPEGPAEP [Q14289 12-25], the normalised SPOT signal, Boehringer light units (BLU); mean over the file's lines of this peptide amounted to 24.6.

KPEGLRRPPSKTSM [Q15047 1069-1082] returned a normalised SPOT signal, Boehringer light units (BLU); mean over the file's lines of this peptide of 32.3.

Take KKPPLRRPHSVIGG [Q00537 66-79]: the normalised SPOT signal, Boehringer light units (BLU); mean over the file's lines of this peptide came to 15.8.

KLEDPRRPDTSFLW [O75923 2014-2027] came in with a normalised SPOT signal, Boehringer light units (BLU); mean over the file's lines of this peptide of 45.6.

The record behind these values is PMC314469, “Protein Interaction Networks by Proteome Peptide Scanning” (PLoS Biology, 2004).
